Changes are numbered by the printed parent chain. Read-outs that look alike come from different tables or passages of the source. Each block holds one molecule with its values, some of them ahead of it. Where no end group is shown, it is not given here. [ ]: non-standard residue; d: D form. pS = N[C@@H](COP(=O)(O)O)C(=O)O
Legend:
CHIP [1] = molecular target: CHIP (UniProt Q9UNE7); experiment: differential scanning fluorimetry of CHIP; conditions: reference: WT peptide; sites S416
[2] = molecular target: Recombinant human CHIP (C-terminus of Hsc70 interacting protein; STUB1) (human) (UniProt Q9UNE7); experiment: ELISA
[3] = molecular target: CHIP, NanoBiT fusion expressed in HEK293T cells (UniProt Q9UNE7); experiment: split reporter
[4] = molecular target: GFP-tagged tauC3 S416E, doxycycline-inducible in HEK293 Flp-In T-REx cells; experiment: co-IP
[5] = molecular target: Recombinant human CHIP (C-terminus of Hsc70 interacting protein; STUB1) (human) (UniProt Q9UNE7); experiment: ELISA; remark: listed apart in the source
CHIP [6] = molecular target: CHIP (UniProt Q9UNE7); experiment: co-IP with anti-Tau-5, CHIP blot; conditions: reference: GFP-tauC3; sites S416
[7] = molecular target: T1, Recombinant human CHIP (C-terminus of Hsc70 interacting protein; STUB1) (human, UniProt Q9UNE7 1-303); experiment: fluorescence polarisation
T1 sequence (looked up): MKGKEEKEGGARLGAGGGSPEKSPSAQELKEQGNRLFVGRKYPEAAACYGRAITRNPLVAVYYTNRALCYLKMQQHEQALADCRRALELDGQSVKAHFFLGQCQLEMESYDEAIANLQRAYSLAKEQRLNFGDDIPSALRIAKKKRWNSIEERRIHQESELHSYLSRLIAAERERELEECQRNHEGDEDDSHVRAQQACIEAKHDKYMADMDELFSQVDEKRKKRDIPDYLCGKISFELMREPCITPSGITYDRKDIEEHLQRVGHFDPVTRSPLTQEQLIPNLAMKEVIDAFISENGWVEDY

CHIP D134A [8] = molecular target: T2, CHIP D134A (human, UniProt Q9UNE7 1-303, D134A); experiment: fluorescence polarisation
T2 sequence (looked up): T1 sequence (looked up) with D134A

CHIP F131A = molecular target: T3, CHIP F131A (human, UniProt Q9UNE7 1-303, F131A); experiment: differential scanning fluorimetry
T3 sequence (looked up): T1 sequence (looked up) with F131A

CHIP D134A [9] = molecular target: T2, CHIP D134A; experiment: differential scanning fluorimetry

other: CHIP apparent Tm (CHIP [1]): weaker; reference 48.81 ± 0.11
Molecule: tau (MAPT); tauC3 proteoform C-terminal 10-mer ending at D421 (from UniProt P10636-8) S416E peptide (…)

Kd [2]: 700 nM
Molecule: natively phosphorylated tauC3 (p.tauC3) from Sf9 insect cells (domain or fragment)

fold binding over FL tau [3]: 5 fold
Molecule: tauC3, NanoBiT fusion expressed in HEK293T cells (domain or fragment)

relative amount of CHIP bound (normalized to tauC3) [4]: 0.55
Molecule: endogenous CHIP (from UniProt Q9UNE7 1-303) (enzyme)

Kd [5]: 90 nM | Kd [2]: 190 nM
Molecule: tauC3 (unmodified, produced from E. coli) (domain or fragment)

other: relative CHIP bound, normalised to tauC3 (CHIP [6]): 0.55
Molecule: tau (MAPT); tauC3 proteoform tauC3, C-terminus at D421 (from UniProt P10636-8) GFP-tauC3 S416E

Kd [5]: 780 nM
Molecule: tauC3 S416E (purified protein) (domain or fragment)

Ki [7]: 1010 ± 990 nM | Ki (CHIP D134A [8]): 1840 ± 230 nM
Molecule: SSTG[pS]IDMVD [tauC3 pS416 10-mer peptide]

Ki [7]: 150 ± 20 nM | Ki (CHIP D134A [8]): 5570 ± 340 nM | binding result (CHIP F131A): binds
Molecule: Ac-SSTGSIDMVD-OH [acetylated 10-mer peptide corresponding to the tauC3 C-terminus (Ac-SSTGSIDMVD-OH)]

Ki [7]: 2410 ± 330 nM | binding result (CHIP F131A): binds | binding result (CHIP D134A [9]): binds
Molecule: Ac-SSTGEIDMVD [pS416 phosphomimetic 10-mer tauC3 peptide (SSTGEIDMVD)]
